Results on 17 molecules are retold here after US20180334496A1 (KODIAK SCIENCES, published 2018).

Holding throughout (test): SPR MX96
Test [1] addresses T1, recombinant human CFD mutant 1 (R157A, R207A), His-tagged (human, UniProt P00746 26-253).
T1 construct: positions are linear positions in the mature protein; also called rhCFD-mut1-His; Mut1

In test [2] the target is T2, human complement factor D purified from serum (human, UniProt P00746 26-253).
T2 construct: serum-purified (CompTech); also called hCFD-Comptech; CFD
T2 sequence (P00746 26-253): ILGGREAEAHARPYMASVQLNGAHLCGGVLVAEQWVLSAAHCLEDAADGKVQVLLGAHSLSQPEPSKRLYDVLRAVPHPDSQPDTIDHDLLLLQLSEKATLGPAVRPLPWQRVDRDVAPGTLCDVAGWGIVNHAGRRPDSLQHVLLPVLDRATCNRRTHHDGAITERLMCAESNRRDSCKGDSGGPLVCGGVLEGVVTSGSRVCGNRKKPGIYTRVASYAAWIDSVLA

For test [3], the target named is T3, recombinant cynomolgus CFD, His-tagged (cynomolgus).
T3 construct: also called rcyCFD-His; recombinant Cyno-CFD

The target in test [4] is T4, recombinant human CFD, His-tagged (human, UniProt P00746 26-253).
T4 construct: also called rhCFD-His
T4 sequence (P00746 26-253 limits assumed): as the sequence (P00746 26-253) above

T1 sequence (P00746 26-253 R182A/R232A limits assumed): as the sequence (P00746 26-253) above, with R157A, R207A counted along it

B1: KCD001 (antibody, V domains shown)
VH: EVQLQQSGPELVKPGASVKISCKASDNSFTGYYMHWVKQSHGNILDWIGYIDPYNGVSSYNQKFKGKATLTVDKSSSTAYMEIRSLTSEDSAVYYCASYYGSSPYWYFDVWGTGTTVTVSS
VL: QIVLSQSPAILSASPGEKVTMTCRASSSVSYMHWYQQKPGSSPKPWIYATSNLASGVPARFSGSGSGTSHFLTISRLEAEDAATYFCQQWSSNPYTFGGGTKLEIK
For B1, the Kd in test [1] is 0.19 nM; in test [2] it was 0.22 nM; in test [3] it was 0.63 nM; in test [4], 0.22 nM.

B2: KCD110 (antibody, V domains shown)
VH: EVQLQQSGPELVKPGASVKISCKASGYSFTGYYMHWVKQSHGNILDWIGYIDPDNGVSSKNQKFTGKATVTADKSSSTAYMELRSLTSEDSAVYYCAGYYGSSWYWYFDVWGTGTTVTVSS
VL: QIVLSQSPAILSASPGEKVTMTCRASSSVSYMHWYQQKPGSSPKPWIYATSNLASGVPARFSGSGSGTSYSLTISRVEAEDAATYYCQQWSSNPYTFGGGTKLEIK
Take B2: the Kd came out at 4.1 nM in test [1], 3.7 nM in test [2], 5.3 nM in test [3] and 2 nM in test [4].

B3: KCD013 (antibody, V domains shown)
VH: EVQLQQSGAELVKPGASVKLSCTASGFKIKDTYMHWVKERPDQGLEWIGRIDPANGNTKYDPKFQGKATITADTSSNTAYLQLSSLTSEDTAVYYCANAMDYWGQGTSVTVSS
VL: QIILTQSPAIMSASPGEKVTMTCSASSSVSNMYWYQQKPGSSPRLLIYDTSNLASGVPVRFSGSGSGASYSLTISRMEAEDAATYYCQQWSSYPWTFGGGTKLEIK
For the molecule B3, the equilibrium dissociation constant (Kd) in test [1] was determined as 19 nM; in test [2] it was 7.3 nM; in test [3], 93 nM; in test [4] it was 11 nM.

B4: KCD015 (antibody, V domains shown)
VH: EVQLQQSGAELVKPGASVKLSCTASGFNIKDTYMHWVKQRPEQGLEWIGRIDPANGYTEYDPKFQGKATITADTSSNTAYLQLSSLTSEDSAAYYCTSAMEFWGQGTSVTVSS
VL: QIVLTQSPAILSASPGEKVTMTCSASSSVSYIYWYQQKPRSSPRLLIYDTSNLASGVPVRFSGSGSGTSYSLTISRMEAEDAATYYCQQWSSYPFTFGGGTKLEVK
Consider B4, for which the dissociation constant (Kd) in test [1] came to 3.7 nM; in test [2], 6.2 nM; in test [3], 250 nM; in test [4], 4.5 nM.

B5: KCD062 (antibody, V domains shown)
VH: EVKLVESGGGLVQPGGSLKLSCAASGFTFSTYIMSWVRQTPEKRLEWVAYITSGGSSTYYPDTVKGRFTISRDNAKSTLYLQMSSLKSEDTAMYYCARHAHFYAMDYWGQGTSVTVSS
VL: DIQMTQSPSSLSASLGGKVTITCKASQDINKYIAWYQHKPGKGPRLLIHYTSTLQPGIPSRFSGSGSGRDYSFSISNLEPEDIATYYCLQYDNLLYTFGGGTKLEIK
Turning to B5, the Kd in test [1] came out at 62 nM; in test [2], 24 nM; in test [3], 19 nM; in test [4], 32 nM.

B6: KCD064 (antibody, V domains shown)
VH: EVKLVESGGGLVQPGGSLKLSCAASGFTFSSYIMSWVRQTPEKRLGWVAYITSGGGSTYYPDTVKGRFTISRDNAKNTLYLQMSSLKSEDTAMYYCARHGTGYAMDYWGQGTSVTVSS
VL: DIQMTQSPSSLSASLGGKVTITCKASQDINKYIAWYQHKPGKGPRLLIHYTSTLQPGIPSRFSGSGSGRDYSFSISNLEPEDIATYYCLQYDNLLYTFGGGTELEIK
On to B6, for which the dissociation constant (Kd) in test [1] was determined as 37 nM; in test [2] it was 20 nM; in test [3], 15 nM; in test [4], 20 nM.

B7: KCD075 (antibody, V domains shown)
VH: QVQLLQPGAELVRPGTSVKLSCKASGYTFSNYWINWVKQRPGQGLEWIGNIYPSDSSINYNQKFKDKATLTVDKSSTTAYMQLSSPTSEDSAVYYCTGTDWYFDVWGAGTTVTVSS
VL: DIQMTQTTSSLSASLGDRVTISCSGGQGISNYLNWYQQKPDGTFKLLIYYTSTLHSGVPSRFSGSGSGTDYSLTISNLEPEDVATYYCQQYSKLPYTFGGGTKLEIK
On to B7, for which the Kd in test [1] was determined as 3.4 nM; in test [2] it was 3.7 nM; in test [3], 3.2 nM; in test [4] it was 2.5 nM.

B8: KCD225 (antibody, V domains shown)
VH: QVQLQQSGPELVKPGASVKISCKASGYTFTDYYINWMKQRPGQGLEWIGWIFPGSDSTYYNEKFKGKATLTVDKSSSTAYMLLSSLTSEDSAVYFCARLGYYSHSYYAMDYWGQGTSVTVSS
VL: DIQMTQSPASLSVSTGETVTITCRASENIYSNLAWFQQKQGKSPQLLVYAATNLADGVPSRFSGSGSGTQYSLKITSLQSEDFGSYYCQHFWGTPLTFGAGTKLDLK
Take B8: the Kd in test [1] is 6.2 nM; in test [2] it was 8.7 nM; in test [3] it was 46 nM; in test [4], 5 nM.

B9: KCD132 (antibody, V domains shown)
VH: QVQLQQSGPELVKPGASVKISCKASGYSFTDYYINWVKQRPGQGLEWIGWIFPGSGSTYYNEKFKGKATLTVDKSSSTAYMLLSSLTSEDSAVYFCARTGYYSNLYAVDYWGQGTSVTVSS
VL: DIQMTQSPASLSVSVGETVTITCRASENIYSNLAWYQQKQGKSPQLLVYVATNLADGVPSRFSGSGSGTQYSLKINSLQSEDFGNYYCQHFWGTPYTFGGGTKLEMR
Consider B9, for which the Kd worked out at 1.4 nM in test [1], 2.6 nM in test [2], 8 nM in test [3] and 1.6 nM in test [4].

B10: KCD219 (antibody, V domains shown)
VH: QVQLQQSGPELVKPGASVKISCKASGYTFTDYYINWVKQRPGQGLEWIGWIFPGSGSTYYNEKFKGKATLTVDKSSSTAYMLLSSLPSEDSAVYFCARYGYYGSSFYAMDYWGQGTSVTVSS
VL: DIQMTQSPASLSVSVGETVTITCRASENIYSNLAWYQQKQGKSPQLLVYAATNLADGVPSRFSGSGSGTQYSLKINSLQSEDFGSYYCQHFWGSPPTFGGGTKLEIK
Regarding B10, the Kd in test [1] is 3.6 nM; in test [2], 4.3 nM; in test [3], 12 nM; in test [4] it was 3 nM.

B11: KCD033 (antibody, V domains shown)
VH: EVQLQQSGPELVKPGASMKISCTASGYSFTGYTMTWVKQSHGKNLEWIGLINPYNGGTNYNQKFKGKATLTVDKSSSIAYMELLSLTSEDSAVYYCARRHYGSNWDYWGQGTTLTVSS
VL: DIKLTQSPSSIYTSLGERVTITCKASQDINTYLSWFQQRPGKSPKTLIYRADRLVDGVPSRVRGSGSGQDYSLTISSLEYEDMGIYYCLQYDEFPYTFGGGTKLEIK
In the case of B11, the Kd was 28 nM in test [1], 11 nM in test [2], 93 nM in test [3] and 19 nM in test [4].

B12: KCD036 (antibody, V domains shown)
VH: EVQLQQSGPELVKPGASMKISCKASGYSFTGYTMTWVKQSHGKNLEWIGLINPYNGGTNYNQKFKGKATFTVDKSSSTAYMELLSLTSEDSAVYYCARRHYGSSWDYWGQGTTLTVSS
VL: DIKLTQSPSSMYASLGERVTITCKASQDINTYLSWFQQKPGKSPKTLIYRANRLVDGVPSRFSGSGSGQDYSLTISSLEYEEMGIYYCLQYDEFPYTFGGGTKLEIK
notes: chimeric
B12: the Kd turned out to be 80 nM in test [1], 26 nM in test [2], 64 nM in test [3] and 29 nM in test [4].

B13: KCD139 (antibody, V domains shown)
VH: EVQLQQSGAELVRPGSSVKMSCKTSGYTFTSYGINWVKQRPGQGLEWIGYIYIANGYTENNEKFKGKAKLTSDISSSTAYMQLSSLTSEDSAIYFCARRFDYAGALDYWGQGTSVTVSS
VL: DIVLTQSPASLAVSLGQRATISCRASESVDSYGNSFMHWYQQKPGQPPKLLIHRASNLESGIPARFSGSGSRTDFTLTINPVEADDVAIYYCQQTNDDPYTFGGGTNLEIK
Regarding B13, the Kd in test [1] came to 3.5 nM; in test [2], 5.3 nM; in test [3] it was 3.8 nM; in test [4], 3.3 nM.

B14: KCD128 (antibody, V domains shown)
VH: QVQLQQPGAELVRPESSVKLSCKASGYTFTSYWMDWVMQRPGQGLEWIGNIYPSGSETHYNQKFKDKATLTVDKSSTTAYMQLSSLTFEDSAVYYCARSGFIGSRYLYYFDYWGQGTTLTVSS
VL: DIVMTQSHKFMSTSVGDRVTITCKASQDVSNAVAWYQLKPGQSPKLLIYSASYRYTGVPDRFTGSGSGTDFTFTISSVQAADLAVYYCQQHYITPYTFGGGTKLEIK
As to B14, the Kd in test [1] was 13 nM; in test [2] it was 14 nM; in test [3], 3.3 nM; in test [4] it was 14 nM.

B15: KCD230 (antibody, V domains shown)
VH: QVQLQQPGTELVKPGASVKLPCKASGYTFTSYWMQWVKQRPGQGLEWIGEIDPSDTYINYNQKFKGKATLTVDTSSTTAYMQLSSLTSEDSAVYYCARYTTIMASDYWGQGTTLTVSS
VL: DIQMTQTTSSLSVSLGDRVTISCRASQDITNYLNWYQQKPDGTVKLLIYFTSRLHSGVPSRFSGSGSGTDYSLTISNLEPEDIATYYCQQYSKLPWTFGGGTKLEIK
As for B15, the Kd is 0.88 nM in test [1], 2.5 nM in test [2], 2.7 nM in test [3] and 1.6 nM in test [4].

B16: KCD022 (antibody, V domains shown)
VH: DVQLQESGPDLVKPSQSLSLTCTVTGYSITSGYSWHWIRQFPGNTLEWMGYIHYSGSTNYNPSLESRISFTRDTSKNQFFLQLNSVTTEDTATYYCALHFYGYNLGWYFDVWGAGTTVTVSS
VL: DIVMTQSHKFMSTSIGDRVIITCKASQDVGTTVAWYQQRPGQSPKLLIYWASTRHTAVPDRFTGSGSGTDFTLTISNVQSEDLADYFCQQYTSYPLTFGAGTQLELK
Turning to B16, the Kd is 110 nM in test [1], 57 nM in test [2], 54 nM in test [3] and 83 nM in test [4].

B17: KCD137 (antibody, V domains shown)
VH: EVQLVESGGDLVKPGGSLKLSCAASGFTFSGYGMSWVRQIPDKRLEWVAISSRDNSFTYYPDSVKGRFTISRDNAKNTLYLQMSSLKSEDTALYFCTRHPYLPTGGYVMDYWGQGTSVTVSS
VL: DIVMTQSHKFMSTSVGDRVSITCKASQDVGTAVAWYQQRPGQSPKLLIYWASTRHTGVPDRFTGSGSGTDFTLTVSNVQSEDLADYFCQQYTSYPLTFGAGTKLELK
In the case of B17, the Kd in test [1] came to 4.6 nM; in test [2], 0.5 nM; in test [3] it was 5.9 nM; in test [4], 5.5 nM.

For orientation: Kd means the equilibrium constant for the complex coming apart.
